Measured values reported in patent US20250304640A1 (ORIKINE BIO SL, published 2025).

T1: IL-10 receptor (IL-10R: IL10RA and IL10RB) on HEK-Blue IL-10 reporter cells (UniProt Q13651 22-578; Q08334 20-325, limits assumed)
T1 sequence (looked up) 1: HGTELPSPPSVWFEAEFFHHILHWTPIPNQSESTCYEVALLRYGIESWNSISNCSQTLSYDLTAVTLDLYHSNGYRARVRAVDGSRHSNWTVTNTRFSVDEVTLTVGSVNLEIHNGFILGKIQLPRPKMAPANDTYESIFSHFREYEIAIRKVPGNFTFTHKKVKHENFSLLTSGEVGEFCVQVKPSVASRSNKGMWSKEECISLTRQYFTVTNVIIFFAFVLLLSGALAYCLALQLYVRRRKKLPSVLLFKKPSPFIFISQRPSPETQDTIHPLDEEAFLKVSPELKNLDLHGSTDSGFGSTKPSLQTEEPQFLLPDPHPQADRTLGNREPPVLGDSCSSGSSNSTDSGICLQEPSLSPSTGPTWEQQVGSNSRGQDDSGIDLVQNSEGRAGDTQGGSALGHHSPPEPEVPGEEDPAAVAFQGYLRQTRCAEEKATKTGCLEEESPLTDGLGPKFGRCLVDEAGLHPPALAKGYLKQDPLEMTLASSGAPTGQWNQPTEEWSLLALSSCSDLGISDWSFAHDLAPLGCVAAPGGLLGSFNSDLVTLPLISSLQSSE
T1 sequence (looked up) 2: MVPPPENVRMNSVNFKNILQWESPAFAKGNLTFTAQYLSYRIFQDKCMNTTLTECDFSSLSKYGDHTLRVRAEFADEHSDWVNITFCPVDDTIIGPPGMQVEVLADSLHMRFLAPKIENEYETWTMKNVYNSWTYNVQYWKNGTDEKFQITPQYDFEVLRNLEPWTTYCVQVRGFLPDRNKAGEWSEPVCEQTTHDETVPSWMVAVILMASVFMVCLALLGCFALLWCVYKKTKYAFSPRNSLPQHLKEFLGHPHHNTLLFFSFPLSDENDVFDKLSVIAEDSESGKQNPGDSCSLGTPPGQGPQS

B1: ORK10-003 (ligand)
chain: MTQSENSCTHFPGNLPNMLRDLRDAFSRVKTFFQMKDQLDNLLLKESLLEDFKGYLGCQALSEMIQFYLEEVMPQAENQDPDIKAHVNSLGENLKTLRLRLRRCHRFLPCENKSKAVEQVKNAFNKLQEKGIYKAMSEFDIFINYIEAYLYKTITPEFANMLRDLRDAFSRVKTFFQMKDQLDNLLLKESLLEDFKGYLGCQALSEMIQFYLEEVMPQAENQDPDIKAHVNSLGENLKTLRLRLRRCHRFLPCENKSKAVEQVKNAFNKLQEKGIYKAMSEFDIFINYIEAYMTM
B2: ORK10-005 (ligand)
chain: MTQSENSCTHFPGNLPNMLRDLRDAFSRVKTFFQMKDQLDNLLLKESLLEDFKGYLGCQALSEMIQFYLEEVMPQAENQDPDIKAHVNSLGENLKTLRLRLRRCHRFLPCENKSKAVEQVKNAFNKLQEKGIYKAMSEFDIFINYIEAKDKDIRDGDELANMLRDLRDAFSRVKTFFQMKDQLDNLLLKESLLEDFKGYLGCQALSEMIQFYLEEVMPQAENQDPDIKAHVNSLGENLKTLRLRLRRCHRFLPCENKSKAVEQVKNAFNKLQEKGIYKAMSEFDIFINYIEAYMTM
B3: foldikine10-HiBit (ligand)
chain: MTQSENSCTHFPGNLPNMLRDLRDAFSRVKTFFQMKDQLDNLLLKESLLEDFKGYLGCQALSEMIQFYLEEVMPQAENQEPDIKAHVNSLGENLKTLRLRLRRCHRFLPCENKSKAVEQVKNAFNKLQEKGIYKAMSEFDIFINYIEAYMTMNNGGLDYLPNMLRDLRDAFSRVKTFFQMKDQLDNLLLKESLLEDFKGYLGCQALSEMIQFYLEEVMPQAENQDPDIKAHVNSLGENLKTLRLRLRRNHRFLPCENKSKAVEQVKNAFNKLQEKGIYKAMSEFDIFINYIEAYMTMKIRNGGVSGWRLFKKIS
B4: IL10-HiBit (ligand)
chain: SPGQGTQSENSCTHFPGNLPNMLRDLRDAFSRVKTFFQMKDQLDNLLLKESLLEDFKGYLGCQALSEMIQFYLEEVMPQAENQDPDIKAHVNSLGENLKTLRLRLRRCHRFLPCENKSKAVEQVKNAFNKLQEKGIYKAMSEFDIFINYIEAYMTMKIRNGGVSGWRLFKKIS
B5: CSF1-IL10-HiBit (ligand)
chain: EEVSEYCSHMIGSGHLQSLQRLIDSQMETSCQITFEFVDQEQLKDPVCYLKKAFLLVQDIMEDTMRFRDNTPNAIAIVQLQELSLRLKSCFTKDYEEHDKACVRTFYETPLQLLEKVKNVFNETKNLLDKDWNIFSKNCNNSFAECSSQDGGGGGSGGSGGSGGSGGSGGSGGSGGSGGGSPGQGTQSENSCTHFPGNLPNMLRDLRDAFSRVKTFFQMKDQLDNLLLKESLLEDFKGYLGCQALSEMIQFYLEEVMPQAENQDPDIKAHVNSLGENLKTLRLRLRRCHRFLPCENKSKAVEQVKNAFNKLQEKGIYKAMSEFDIFINYIEAYMTMKIRNGGVSGWRLFKKIS
B6: CSF1-35AA-Foldikine10-HiBit (ligand)
chain: EEVSEYCSHMIGSGHLQSLQRLIDSQMETSCQITFEFVDQEQLKDPVCYLKKAFLLVQDIMEDTMRFRDNTPNAIAIVQLQELSLRLKSCFTKDYEEHDKACVRTFYETPLQLLEKVKNVFNETKNLLDKDWNIFSKNCNNSFAECSSQDGGGGGSGGGGSGGSGGSGGSGGSGGSGGSGGSGGGMTQSENSCTHFPGNLPNMLRDLRDAFSRVKTFFQMKDQLDNLLLKESLLEDFKGYLGCQALSEMIQFYLEEVMPQAENQEPDIKAHVNSLGENLKTLRLRLRRCHRFLPCENKSKAVEQVKNAFNKLQEKGIYKAMSEFDIFINYIEAYMTMNNGGLDYLPNMLRDLRDAFSRVKTFFQMKDQLDNLLLKESLLEDFKGYLGCQALSEMIQFYLEEVMPQAENQDPDIKAHVNSLGENLKTLRLRLRRNHRFLPCENKSKAVEQVKNAFNKLQEKGIYKAMSEFDIFINYIEAYMTMKIRNGGVSGWRLFKKIS
B7: CSF1-25AA-Foldikine10-HiBit (ligand)
chain: EEVSEYCSHMIGSGHLQSLQRLIDSQMETSCQITFEFVDQEQLKDPVCYLKKAFLLVQDIMEDTMRFRDNTPNAIAIVQLQELSLRLKSCFTKDYEEHDKACVRTFYETPLQLLEKVKNVFNETKNLLDKDWNIFSKNCNNSFAECSSQDGGGGGSGGSGGSGGSGGSGGSGGSGGSGGGMTQSENSCTHFPGNLPNMLRDLRDAFSRVKTFFQMKDQLDNLLLKESLLEDFKGYLGCQALSEMIQFYLEEVMPQAENQEPDIKAHVNSLGENLKTLRLRLRRCHRFLPCENKSKAVEQVKNAFNKLQEKGIYKAMSEFDIFINYIEAYMTMNNGGLDYLPNMLRDLRDAFSRVKTFFQMKDQLDNLLLKESLLEDFKGYLGCQALSEMIQFYLEEVMPQAENQDPDIKAHVNSLGENLKTLRLRLRRNHRFLPCENKSKAVEQVKNAFNKLQEKGIYKAMSEFDIFINYIEAYMTMKIRNGGVSGWRLFKKIS
B8: CSF1-35AA-IL10-HiBit (ligand)
chain: EEVSEYCSHMIGSGHLQSLQRLIDSQMETSCQITFEFVDQEQLKDPVCYLKKAFLLVQDIMEDTMRFRDNTPNAIAIVQLQELSLRLKSCFTKDYEEHDKACVRTFYETPLQLLEKVKNVFNETKNLLDKDWNIFSKNCNNSFAECSSQDGGGGGSGGGGSGGSGGSGGSGGSGGSGGSGGSGGGRASPGQGTQSENSCTHFPGNLPNMLRDLRDAFSRVKTFFQMKDQLDNLLLKESLLEDFKGYLGCQALSEMIQFYLEEVMPQAENQDPDIKAHVNSLGENLKTLRLRLRRCHRFLPCENKSKAVEQVKNAFNKLQEKGIYKAMSEFDIFINYIEAYMTMKIRNGGVSGWRLFKKIS
B9: CSF1-30AA-IL10-HiBit (ligand)
chain: EEVSEYCSHMIGSGHLQSLQRLIDSQMETSCQITFEFVDQEQLKDPVCYLKKAFLLVQDIMEDTMRFRDNTPNAIAIVQLQELSLRLKSCFTKDYEEHDKACVRTFYETPLQLLEKVKNVFNETKNLLDKDWNIFSKNCNNSFAECSSQDGGGGGSGGSGGSGGSGGSGGSGGSGGSGGGRASPGQGTQSENSCTHFPGNLPNMLRDLRDAFSRVKTFFQMKDQLDNLLLKESLLEDFKGYLGCQALSEMIQFYLEEVMPQAENQDPDIKAHVNSLGENLKTLRLRLRRCHRFLPCENKSKAVEQVKNAFNKLQEKGIYKAMSEFDIFINYIEAYMTMKIRNGGVSGWRLFKKIS
B10: CSF1-15AA-Foldikine10-HiBit (ligand)
chain: EEVSEYCSHMIGSGHLQSLQRLIDSQMETSCQITFEFVDQEQLKDPVCYLKKAFLLVQDIMEDTMRFRDNTPNAIAIVQLQELSLRLKSCFTKDYEEHDKACVRTFYETPLQLLEKVKNVFNETKNLLDKDWNIFSKNCNNSFAECSSQDGGSGGSGGSGGSGGGMTQSENSCTHFPGNLPNMLRDLRDAFSRVKTFFQMKDQLDNLLLKESLLEDFKGYLGCQALSEMIQFYLEEVMPQAENQEPDIKAHVNSLGENLKTLRLRLRRCHRFLPCENKSKAVEQVKNAFNKLQEKGIYKAMSEFDIFINYIEAYMTMNNGGLDYLPNMLRDLRDAFSRVKTFFQMKDQLDNLLLKESLLEDFKGYLGCQALSEMIQFYLEEVMPQAENQDPDIKAHVNSLGENLKTLRLRLRRNHRFLPCENKSKAVEQVKNAFNKLQEKGIYKAMSEFDIFINYIEAYMTMKIRNGGVSGWRLFKKIS

biological target: T1, IL-10 receptor (IL-10R: IL10RA and …); test: cell-based or functional assay

With B1 as the binder, how does the “EC-50, HEK-Blue IL-10 reporter cells” value read?
Its value is 2.3e-10.

For B2, which “EC-50, HEK-Blue IL-10 reporter cells” value is on record?
Its value is 6.25e-10.

biological target: T1, IL-10 receptor (IL-10R: IL10RA and …); test: cell-based or functional assay; remark: another data set of the same source

Which “IL-10 EC-50, HEK-Blue IL-10 reporter cells” value does the source give for B3 here?
Its value is 2.14e-10.

For B4, which “IL-10 EC-50, HEK-Blue IL-10 reporter cells” value is on record?
Its value is 8e-10.

Which “IL-10 EC-50, HEK-Blue IL-10 reporter cells” value does the source give for B5 here?
Its value is 1.16e-09.

biological target: T2, CSF1 receptor (CSF1R) (UniProt P07333 20-972, limits assumed); test: cell-based or functional assay
T2 sequence (P07333 20-972 limits assumed): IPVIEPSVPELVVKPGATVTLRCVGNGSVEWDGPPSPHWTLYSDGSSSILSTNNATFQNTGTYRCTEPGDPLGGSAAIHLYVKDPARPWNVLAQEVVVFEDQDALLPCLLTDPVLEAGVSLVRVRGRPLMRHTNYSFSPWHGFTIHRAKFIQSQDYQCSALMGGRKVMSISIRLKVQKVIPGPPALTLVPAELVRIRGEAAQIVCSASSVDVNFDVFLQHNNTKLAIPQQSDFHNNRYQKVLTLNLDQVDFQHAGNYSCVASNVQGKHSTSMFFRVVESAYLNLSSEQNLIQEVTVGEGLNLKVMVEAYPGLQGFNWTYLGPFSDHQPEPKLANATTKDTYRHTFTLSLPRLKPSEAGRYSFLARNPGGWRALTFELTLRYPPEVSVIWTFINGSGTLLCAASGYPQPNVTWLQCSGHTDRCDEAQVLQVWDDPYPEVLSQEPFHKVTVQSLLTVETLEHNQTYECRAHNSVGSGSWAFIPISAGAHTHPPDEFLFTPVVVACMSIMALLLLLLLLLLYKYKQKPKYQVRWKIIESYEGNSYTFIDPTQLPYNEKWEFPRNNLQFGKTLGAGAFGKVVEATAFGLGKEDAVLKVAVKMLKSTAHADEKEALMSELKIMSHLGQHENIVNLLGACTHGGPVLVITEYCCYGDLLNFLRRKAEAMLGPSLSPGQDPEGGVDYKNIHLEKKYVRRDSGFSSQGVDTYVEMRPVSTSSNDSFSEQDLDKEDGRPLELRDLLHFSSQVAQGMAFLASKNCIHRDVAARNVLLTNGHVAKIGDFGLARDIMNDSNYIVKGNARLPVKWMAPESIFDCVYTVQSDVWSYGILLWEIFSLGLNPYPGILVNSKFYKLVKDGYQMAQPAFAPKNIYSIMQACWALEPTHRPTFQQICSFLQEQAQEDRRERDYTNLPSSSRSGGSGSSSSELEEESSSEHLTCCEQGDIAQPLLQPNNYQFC

How did the “CSF1 EC-50, HEK293 CSF1R/SRE reporter” value turn out when B5 was run?
The value was 7.81e-10.

biological target: T1, IL-10 receptor (IL-10R: IL10RA and …); test: cell-based or functional assay; remark: another data set of the same source

Which “EC-50 for IL10 activity, HEK-Blue IL-10 reporter cells” value (from here on “EC-50 for IL10 activity”) does the source give for B6 here?
Its value is 3.18e-10.

For B7, which “EC-50 for IL10 activity” value is on record?
The value was 3.61e-10.

How did the “EC-50 for IL10 activity” value turn out when B8 was run?
Its value is 1.9e-10.

How did the “EC-50 for IL10 activity” value turn out when B9 was run?
The value was 2.35e-10.

How did the “EC-50 for IL10 activity” value turn out when B10 was run?
Its value is 2.6e-10.

biological target: T2, CSF1 receptor (CSF1R); test: cell-based or functional assay; remark: another data set of the same source

Which “EC-50 for CSF1 activity, HEK293 CSF1R/SRE reporter” value does the source give for B6 here?
The value was 1.83e-09.

B7 was tested. Which “EC-50 for CSF1 activity, HEK293 CSF1R/SRE reporter” value did it give?
Its value is 1.64e-09.

Which “EC-50 for CSF1 activity, HEK293 CSF1R/SRE reporter” value does the source give for B8 here?
The value was 6.5e-10.

B9 was tested. Which “EC-50 for CSF1 activity, HEK293 CSF1R/SRE reporter” value did it give?
Its value is 5.5e-10.

For B10, which “EC-50 for CSF1 activity, HEK293 CSF1R/SRE reporter” value is on record?
The value was 1.19e-09.
